Assay results published in publication PMC5027573, “Structural Analysis of the Hg(II)-Regulatory Protein Tn501 MerR from Pseudomonas aeruginosa” (Scientific Reports, 2016).

Molecular target: the molecule itself
Assay: crystal structure; Hg(II)-bound truncated MerR (equimolar HgCl2); sitting-drop vapor diffusion at 16 °C, 0.1 M KCl, 0.01 M MgCl2, 0.1 M Tris pH 8.5, 30% PEG200; space group P3(1)21, one dimer in the asymmetric unit; Hg SAD, 2.8 Å

B1: C-terminal truncated Tn501 MerR (MerRTC10), mercury(II)-bound (domain or fragment, Pseudomonas aeruginosa, UniProt P0A183 1-134, looked up)
chain: MENNLENLTIGVFAKAAGVNVETIRFYQRKGLLLEPDKPYGSIRRYGEADVTRVRFVKSAQRLGFSLDEIAELLRLEDGTHCEEASSLAEHKLKDVREKMADLARMEAVLSELVCACHARRGNVSCPLIASLQG
notes: Mercuric resistance operon regulatory protein MerR of transposon Tn501, Pseudomonas aeruginosa; the last ten C-terminal residues were truncated; synthesized and codon-optimized merR gene; also called Hg2+-MerR; C-terminally truncated Tn501 MerR; source: E. coli BL21 (DE3), pET-30a, purified (HiTrap Phenyl FF, HisTrap HF, Superdex200 gel filtration)
  stoichiometry N: 2
